Target: T1, RANK (Receptor Activator for Nuclear Factor κB) (UniProt Q9Y6Q6 30-616, limits assumed)
T1 construct: whole, on cells; Endogenous receptor on THP1 monocytes; also called RANKL receptor
T1 sequence (looked up): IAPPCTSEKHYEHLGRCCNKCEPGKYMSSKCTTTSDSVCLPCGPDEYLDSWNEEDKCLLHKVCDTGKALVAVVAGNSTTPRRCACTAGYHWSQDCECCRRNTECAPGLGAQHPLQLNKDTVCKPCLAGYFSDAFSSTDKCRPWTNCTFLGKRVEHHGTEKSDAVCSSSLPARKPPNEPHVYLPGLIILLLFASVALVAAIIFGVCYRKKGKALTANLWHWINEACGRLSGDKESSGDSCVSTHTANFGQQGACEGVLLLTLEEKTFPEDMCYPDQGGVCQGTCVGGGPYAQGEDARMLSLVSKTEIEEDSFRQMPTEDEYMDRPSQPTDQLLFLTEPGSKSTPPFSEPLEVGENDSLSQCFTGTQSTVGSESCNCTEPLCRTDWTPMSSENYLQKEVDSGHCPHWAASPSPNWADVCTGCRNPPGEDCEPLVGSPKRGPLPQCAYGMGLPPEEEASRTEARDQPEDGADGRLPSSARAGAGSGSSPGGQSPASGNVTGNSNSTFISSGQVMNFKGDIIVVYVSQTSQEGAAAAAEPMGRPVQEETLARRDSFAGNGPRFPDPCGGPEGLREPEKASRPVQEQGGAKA
Experiment: flow cytometry; 5 µg RIG on 1*10^6 THP1 monocytes, detected with FITC labeled anti human RANKL antibody
Experimental: 1*10⁶ THP1 monocytes were grown in MCSF and RANKL medium for 72 hours and mixed with 5 μg purified RIG protein from Implementation 1 for additional 1 hour at 4° C. 5 μl FITC labeled anti human RANKL antibody (CALTAG, CA) was then added into the mixture and flow cytometry was used to examine FITC positive cells. […] In FIG. 4, SSC-H presents the pellet number in cytoplasm, FSC-H presents the cell size, FL2-H presents PE and FL1-H presents FITC.

B1: fusion protein RIG (Fc fusion)
chain: MRRASRDYTKYLRGSEEMGGGPGAPHEGPLHAPPPPAPHQPPAASRSMFVALLGLGLGQVVCSVALFFYFRAQMDPNRISEDGTHCIYRILRLHENADFQDTTLESQDTKLIPDSCRRIKQAFQGAVQKELQHIVGSQHIRAEKAMVDGSWLDLAKRSKLEAQPFAHLTINATDIPSGSHKVSLSSWYHDRGWAKISNMTFSNGKLIVNQDGFYYLYANICFRHHETSGDLATEYLQLMVYVTKTSIKIPSSHTLMKGGSTKYWSGNSEFHFYSINVGGFFKLRSGEEISIEVSNPSLLDPDQDATYFGAFKVRDIDGSEPKSCDKTHTCPPCPAPELLGGPSVFLFPPKPKDTLMISATPEVTCVVVDVSHEDPEVKFMWYVDGVEVHNAKTKPAEEQYNSTYAVVSVLTVLHQDWLNGKEYKCKVSNKALPAPIEKTISKAKGQPAEPQVYTLPPSRDELTYNQVSLTCLVKGFYPSDIAVEWESNGQPENNYKTTPPVLDSDGSFFLYSKLTVDKSRWQQGNVFSCSVMHEALHNHYTQKSLSLSPGK
notes: also called RANKL-Fcγ fusion protein; RIG protein
binding result: binds

Source: patent US20110243944A1 (SHANGHAI KEXIN BIOTECH, published 2011)
